Reference: patent US20220323445A1, “REDUCING IMMUNOGENICITY TO PEGLOTICASE” (Horizon Therapeutics Ireland DAC, priority 2020, published 2022)

Test system: serum uric acid (sUA)
Assay: Serum uric acid (sUA) levels and sUA responders, open-label study of pegloticase with MTX (NCT03635957)
Format: in vivo, human
Experimental: The primary objective is to estimate the response rate during Month 6 (Weeks 20, 22, and 24), as measured by the sustained normalization of serum uric acid (SUA) to <6 mg/dL for at least 80% of the time during Month 6 in subjects receiving KXX with MTX.
The primary efficacy outcome endpoint is the sustained normalization of SUA to <6 mg/dL for at least 80% of the time during month 6 (weeks 20, 22, and 24) in subjects receiving KXX with MTX. This is slightly below the urate solubility threshold and this threshold has been the accepted standard for nearly all modern gout trials. Participants who achieve this endpoint were classified as “responders.” Serum uric acid (SUA) responders may also be defined as participants achieving and maintaining SUA <6 mg/dL for at least 80% of the time during Month 6 (Weeks 20, 22, and 24).
Blood samples may be collected prior to each pegloticase infusion for measurement of SUA levels using the Beckman Coulter AU System Uric Acid procedure. Participants were declared “non-responders” if there were SUA measures >6 mg/dL at 2 consecutive study visits beginning with the week 2 visit. […] If the SUA goal is not maintained before or at the 12-week mark, it was assumed that the participant had developed clinically relevant anti-pegloticase antibody and they received no further infusions. This assumption and subsequent discontinuation of pegloticase was consistent with the protocol of large phase III randomized controlled trials and the product label. A formal stopping rule was 2 occasions of SUA levels of greater than 6 mg/dL.
Clinical Chemistry—Blood samples were collected prior to each pegloticase infusion for measurement of SUA levels (primary efficacy parameter) using the Beckman Coulter AU System Uric Acid procedure. In this procedure uric acid is converted to hydrogen peroxide. Hydrogen peroxide reacts with reagent to produce a chromophore which is read bichromatically at 660/800 nm. The amount of dye formed is proportional to the uric acid concentration in the sample.
Serum samples for measurement of SUA levels were collected at the Screening Visit, the Week −4 Visit (prior to the first dose of MTX), and the Week −2 Visit during the MTX Run-in Period; within 48 hours prior to each pegloticase infusion and after the end of each pegloticase infusion prior to discharge from the site during the Pegloticase+IMM Period; at the non-infusion Week 52/End of Study/Early Termination Visits and at the Post Treatment 3 and 6 Month Follow-up Visits. Additional serum samples for SUA levels were collected at optional non-infusion (Frequent Sampling) Visits at Weeks 1 and 7. […] Subjects with SUA level >6 mg/dL at 2 consecutive visits beginning at Week 2 visit discontinued treatment, completed the End of Pegloticase Infusion Visit procedures within 2 weeks and continued the subject visits according to the protocol (without treatment).
Efficacy analyses were performed using the modified intention-to-treat (mITT) population, defined as all enrolled subjects who received ≥1 dose of pegloticase. The proportion of Month 6 responders was summarized, along with a 95% confidence interval for the proportion. The proportion of Month 3 and overall (Months 3 and 6 combined) responders was analyzed similarly.
A subject was declared a non-responder if the subject had SUA level >6 mg/dL at 2 consecutive study visits beginning with the Week 2 Visit. In addition, a subject who withdraws from study treatment for any reason after the first dose of pegloticase in the KXX+MTX Period and prior to Month 6 (for the primary endpoint) or Month 3 (for the secondary endpoint) was considered a non-responder if SUA values were not collected at the planned time points.
Patients were administered oral MTX (15 mg/week) and folate (1 mg/day) 4 weeks prior to the first pegloticase infusion (Day 1) and throughout the pegloticase treatment period. […]

[1] = Week 18 - Pre-Infusion, Month 6 sUA Responders
[2] = Week 18 - Pre-Infusion, mITT, n=11
[3] = Week 20 - Post-Infusion, Month 6 sUA Responders
[4] = Week 20 - Post-Infusion, mITT, n=11
[5] = Week 20 - Pre-Infusion, Month 6 sUA Responders
[6] = Week 20 - Pre-Infusion, mITT, n=11
[7] = Week 22 - Post-Infusion, Month 6 sUA Responders
[8] = Week 22 - Post-Infusion, mITT, n=11
[9] = Week 22 - Pre-Infusion, Month 6 sUA Responders
[10] = Week 22 - Pre-Infusion, mITT, n=11
[11] = Week 24 - Post-Infusion, Month 6 sUA Responders
[12] = Week 24 - Post-Infusion, mITT, n=5
[13] = Week 24 - Pre-Infusion, Month 6 sUA Responders
[14] = Week 24 - Pre-Infusion, mITT, n=11
[15] = Week 26 - Pre-Infusion, Month 6 sUA Responders
[16] = Week 26 - Pre-Infusion, mITT, n=8
[17] = Week 28 - Pre-Infusion, Month 6 sUA Responders
[18] = Week 28 - Pre-Infusion, mITT, n=8
[19] = Week 30 - Pre-Infusion, Month 6 sUA Responders
[20] = Week 30 - Pre-Infusion, mITT, n=8
[21] = Week 32 - Post-Infusion, Month 6 sUA Responders
[22] = Week 32 - Post-Infusion, mITT, n=8
[23] = Week 32 - Pre-Infusion, Month 6 sUA Responders
[24] = Week 32 - Pre-Infusion, mITT, n=10
[25] = Week 34 - Post-Infusion, Month 6 sUA Responders
[26] = Week 34 - Post-Infusion, mITT, n=8

B1: pegloticase (protein)
chain: TYKKNDEVEFVRTGYGKDMIKVLHIQRDGKYHSIKEVATTVQLTLSSKKDYLHGDNSDVIPTDTIKNTVNVLAKFKGIKSIETFAVTICEHFLSSFKHVIRAQVYVEEVPWKRFEKNGVKHVHAFIYTPTGTHFCEVEQIRNGPPVIHSGIKDLKVLKTTQSGFEGFIKDQFTTLPEVKDRCFATQVYCKWRYHQGRDVDFEATWDTVRSIVLQKFAGPYDKGEYSPSVQKTLYDIQVLTLGQVPEIEDMEISLPNIHYLNIDMSKMGLINKEEVLLPLDNPYGKITGTVKRKLSSRL
modifications: monomethoxy PEG conjugated; Krystexxa Sequence
notes: covalent conjugate of uricase produced by a genetically modified strain of Escherichia coli and monomethoxypoly (ethylene glycol)
−8.99 (2.961) mg/dL: sUA Change from Baseline, Mean (SD) [24]
-8.95 mg/dL: sUA Change from Baseline, Median [15] | sUA Change from Baseline, Median [16] | sUA Change from Baseline, Median [17] | sUA Change from Baseline, Median [18] | sUA Change from Baseline, Median [19] | sUA Change from Baseline, Median [20] | sUA Change from Baseline, Median [21] | sUA Change from Baseline, Median [22] | sUA Change from Baseline, Median [23] | sUA Change from Baseline, Median [24] | sUA Change from Baseline, Median [25] | sUA Change from Baseline, Median [26]
0.30 mg/dL: sUA Observed, Mean [1] | sUA Observed, Median [1] | sUA Observed, Median [2] | sUA Observed, Mean [3] | sUA Observed, Median [3] | sUA Observed, Median [4] | sUA Observed, Mean [5] | sUA Observed, Median [5] | sUA Observed, Median [6] | sUA Observed, Mean [7] | sUA Observed, Median [7] | sUA Observed, Median [8] | sUA Observed, Mean [9] | sUA Observed, Median [9] | sUA Observed, Median [10] | sUA Observed, Mean [11] | sUA Observed, Median [11] | sUA Observed, Median [12] | sUA Observed, Mean [13] | sUA Observed, Median [13] | sUA Observed, Median [14] | sUA Observed, Mean [15] | sUA Observed, Median [15] | sUA Observed, Median [16] | sUA Observed, Mean [17] | sUA Observed, Median [17] | sUA Observed, Median [18] | sUA Observed, Mean [19] | sUA Observed, Median [19] | sUA Observed, Median [20] | sUA Observed, Mean [21] | sUA Observed, Median [21] | sUA Observed, Median [22] | sUA Observed, Mean [23] | sUA Observed, Median [23] | sUA Observed, Median [24] | sUA Observed, Mean [25] | sUA Observed, Median [25] | sUA Observed, Median [26]
-9.18 mg/dL: sUA Change from Baseline, Mean [11]
8 (100%): sUA < 6 mg/dL, n (%) [16] | sUA < 6 mg/dL, n (%) [18] | sUA < 6 mg/dL, n (%) [20] | sUA < 6 mg/dL, n (%) [22] | sUA < 6 mg/dL, n (%) [26]
−9.18 (4.135) mg/dL: sUA Change from Baseline, Mean (SD) [12]
5 (100%): sUA < 6 mg/dL, n (%) [12]
-8.99 mg/dL: sUA Change from Baseline, Mean [23]
(100%): sUA < 6 mg/dL, % [3] | sUA < 6 mg/dL, % [5] | sUA < 6 mg/dL, % [7] | sUA < 6 mg/dL, % [9] | sUA < 6 mg/dL, % [11] | sUA < 6 mg/dL, % [13] | sUA < 6 mg/dL, % [15] | sUA < 6 mg/dL, % [17] | sUA < 6 mg/dL, % [19] | sUA < 6 mg/dL, % [21] | sUA < 6 mg/dL, % [23] | sUA < 6 mg/dL, % [25]
-8.97 mg/dL: sUA Change from Baseline, Mean [1] | sUA Change from Baseline, Mean [3] | sUA Change from Baseline, Mean [5] | sUA Change from Baseline, Mean [7] | sUA Change from Baseline, Mean [9] | sUA Change from Baseline, Mean [13]
0.30 (0.000) mg/dL: sUA Observed, Mean (SD) [2] | sUA Observed, Mean (SD) [4] | sUA Observed, Mean (SD) [6] | sUA Observed, Mean (SD) [8] | sUA Observed, Mean (SD) [10] | sUA Observed, Mean (SD) [12] | sUA Observed, Mean (SD) [14] | sUA Observed, Mean (SD) [16] | sUA Observed, Mean (SD) [18] | sUA Observed, Mean (SD) [20] | sUA Observed, Mean (SD) [22] | sUA Observed, Mean (SD) [24] | sUA Observed, Mean (SD) [26]
10 (100%): sUA < 6 mg/dL, n (%) [24]
-8.80 mg/dL: sUA Change from Baseline, Median [1] | sUA Change from Baseline, Median [2] | sUA Change from Baseline, Median [3] | sUA Change from Baseline, Median [4] | sUA Change from Baseline, Median [5] | sUA Change from Baseline, Median [6] | sUA Change from Baseline, Median [7] | sUA Change from Baseline, Median [8] | sUA Change from Baseline, Median [9] | sUA Change from Baseline, Median [10] | sUA Change from Baseline, Median [13] | sUA Change from Baseline, Median [14]
11 (100%): sUA < 6 mg/dL, n (%) [2] | sUA < 6 mg/dL, n (%) [4] | sUA < 6 mg/dL, n (%) [6] | sUA < 6 mg/dL, n (%) [8] | sUA < 6 mg/dL, n (%) [10] | sUA < 6 mg/dL, n (%) [14]
-9.30 mg/dL: sUA Change from Baseline, Median [11] | sUA Change from Baseline, Median [12]
-9.11 mg/dL: sUA Change from Baseline, Mean [15] | sUA Change from Baseline, Mean [17] | sUA Change from Baseline, Mean [19] | sUA Change from Baseline, Mean [21] | sUA Change from Baseline, Mean [25]
−8.97 (2.810) mg/dL: sUA Change from Baseline, Mean (SD) [2] | sUA Change from Baseline, Mean (SD) [4] | sUA Change from Baseline, Mean (SD) [6] | sUA Change from Baseline, Mean (SD) [8] | sUA Change from Baseline, Mean (SD) [10] | sUA Change from Baseline, Mean (SD) [14]
−9.11 (3.293) mg/dL: sUA Change from Baseline, Mean (SD) [16] | sUA Change from Baseline, Mean (SD) [18] | sUA Change from Baseline, Mean (SD) [20] | sUA Change from Baseline, Mean (SD) [22] | sUA Change from Baseline, Mean (SD) [26]
